One block for each substance: values may come before it.
Assays:
KRas G12D (GDP-loaded) [1] = biological target: KRas G12D (GDP-loaded) (UniProt P01116); test: thermal shift assay
KRas G12D (GDP-loaded) [2] = biological target: KRas G12D (GDP-loaded) (UniProt P01116); test: ITC
KRas wild-type = KRas wild-type (UniProt P01116); test: ITC
[3] = biological target: KRas G12D, site-specifically mono-biotinylated by sortase-mediated ligation (GDP-loaded) (UniProt P01116); test: SPR

ΔTm (KRas G12D (GDP-loaded) [1]): 11.5 °C
Kd (KRas G12D (GDP-loaded) [2]): 21 nM
stoichiometry N (KRas G12D (GDP-loaded) [2]): 0.625
Substance: KRpep-2d (peptide)

Kd (KRas wild-type): 6 nM
stoichiometry N (KRas wild-type): 0.554
Substance: Raf-RBD (from UniProt P04049 56-131) (domain or fragment)

Kd [3]: > 1000 nM
Substance: SAH-SOS1A (from UniProt Q07889 929-944) (peptide)

Kd [3]: > 1000 nM
Substance: cyclorasin 9A5 (peptide)
